System: Escherichia coli TOP10
Test: shrunken log2 fold change of peptide-encoding DNA abundance (4.5 h post-induction vs induction); higher = less antimicrobial activity (less host growth inhibition)
Conditions: time post-induction: 4.5 h; library: site-saturation at positions 5, 18, 19, 20
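Also: peptides expressed intracellularly from a pBAD plasmid library in pooled LB shake-flask culture, induced with 0.3% L-arabinose, DNA abundance read by NGS, three biological replicates, DESeq2 with apeglm shrinkage.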

Sequence	shrunken log2 fold change
RRIRWRPPRLPRPRPRPQIKPRP	-0.21
RRIRRRPPRLPRPRPRPIIWPRP	-0.0862
RRIRLRPPRLPRPRPRPWNIPRP	-0.176
RRIRGRPPRLPRPRPRPPDFPRP	0.46
RRIRKRPPRLPRPRPRPRWDPRP	0.118
RRIRSRPPRLPRPRPRPCGRPRP	-0.485
RRIRDRPPRLPRPRPRPERSPRP	0.239
RRIRLRPPRLPRPRPRPKTRPRP	0.226
RRIRSRPPRLPRPRPRPPGPPRP	0.64
RRIRFRPPRLPRPRPRPKRCPRP	0.383
RRIRWRPPRLPRPRPRPMMGPRP	0.0383
RRIRERPPRLPRPRPRPGSHPRP	-0.152
RRIRHRPPRLPRPRPRPMHPPRP	-0.193
RRIRIRPPRLPRPRPRPKQSPRP	-0.384
RRIRHRPPRLPRPRPRPVFQPRP	-0.0932
RRIRIRPPRLPRPRPRPVRAPRP	0.172
RRIRCRPPRLPRPRPRPDAAPRP	1.03
RRIRIRPPRLPRPRPRPFYHPRP	-0.594
RRIRHRPPRLPRPRPRPMFDPRP	0.108
RRIRPRPPRLPRPRPRPQQAPRP	0.106
RRIRIRPPRLPRPRPRPTQMPRP	0.565
RRIRRRPPRLPRPRPRPGGMPRP	0.235
RRIRDRPPRLPRPRPRPHCRPRP	-0.123
RRIRMRPPRLPRPRPRPISRPRP	0.074
RRIRRRPPRLPRPRPRPAICPRP	0.134

Sequence	shrunken log2 fold change
RRIRKRPPRLPRPRPRPIPEPRP	0.163
RRIRGRPPRLPRPRPRPCRRPRP	0.117
RRIRSRPPRLPRPRPRPIIKPRP	0.18
RRIRWRPPRLPRPRPRPSVKPRP	-0.159
RRIRERPPRLPRPRPRPHMHPRP	-0.687
RRIRNRPPRLPRPRPRPQAAPRP	-0.0424
RRIRQRPPRLPRPRPRPQYGPRP	-0.0763
RRIRERPPRLPRPRPRPLYQPRP	-0.176
RRIRYRPPRLPRPRPRPSHAPRP	-0.242
RRIRLRPPRLPRPRPRPFQGPRP	0.0498
RRIRKRPPRLPRPRPRPTKVPRP	1.21
RRIRWRPPRLPRPRPRPVFYPRP	-0.193
RRIRMRPPRLPRPRPRPCKNPRP	4.11
RRIRMRPPRLPRPRPRPRYKPRP	0.104
RRIRGRPPRLPRPRPRPFRWPRP	0.053
RRIRQRPPRLPRPRPRPDQGPRP	-0.0223
RRIRYRPPRLPRPRPRPMYKPRP	-0.28
RRIRDRPPRLPRPRPRPHLAPRP	0.302
RRIRIRPPRLPRPRPRPSLRPRP	-0.72
RRIRPRPPRLPRPRPRPQSFPRP	0.0475
RRIRSRPPRLPRPRPRPIMPPRP	-0.121
RRIRARPPRLPRPRPRPEATPRP	1.65
RRIRERPPRLPRPRPRPAINPRP	-0.257
RRIRHRPPRLPRPRPRPAQRPRP	0.359
RRIRSRPPRLPRPRPRPISDPRP	0.103

Sequence	shrunken log2 fold change
RRIRRRPPRLPRPRPRPSEIPRP	0.0269
RRIRYRPPRLPRPRPRPGLFPRP	-0.0365
RRIRLRPPRLPRPRPRPHANPRP	-0.293
RRIRMRPPRLPRPRPRPNKYPRP	-0.148
RRIRQRPPRLPRPRPRPKFAPRP	0.0489
RRIRRRPPRLPRPRPRPQPDPRP	0.317
RRIRMRPPRLPRPRPRPKTVPRP	0.847
RRIRQRPPRLPRPRPRPYALPRP	-0.0202
RRIRIRPPRLPRPRPRPECCPRP	0.0559
RRIRTRPPRLPRPRPRPHYKPRP	-0.531
RRIRDRPPRLPRPRPRPIKKPRP	0.0559
RRIRFRPPRLPRPRPRPGFNPRP	-0.22
RRIRMRPPRLPRPRPRPFCQPRP	0.0975
RRIRRRPPRLPRPRPRPIWVPRP	0.222
RRIRQRPPRLPRPRPRPYGFPRP	0.0147
RRIRPRPPRLPRPRPRPSKKPRP	-0.108
RRIRCRPPRLPRPRPRPFFRPRP	-0.116
RRIRVRPPRLPRPRPRPSGQPRP	0.0937
RRIRGRPPRLPRPRPRPAASPRP	0.947
RRIRLRPPRLPRPRPRPYPRPRP	-0.0678
RRIRWRPPRLPRPRPRPFLWPRP	0.0802
RRIRARPPRLPRPRPRPRWKPRP	0.462
RRIRKRPPRLPRPRPRPIFSPRP	-0.143
RRIRMRPPRLPRPRPRPMNAPRP	-0.0277
RRIRARPPRLPRPRPRPCRKPRP	-0.232

Sequence	shrunken log2 fold change
RRIRRRPPRLPRPRPRPRTWPRP	1.84
RRIRRRPPRLPRPRPRPTGNPRP	0.0381
RRIRWRPPRLPRPRPRPGKQPRP	0.151
RRIRNRPPRLPRPRPRPSKPPRP	-0.399
RRIRIRPPRLPRPRPRPFLFPRP	-0.586
RRIRFRPPRLPRPRPRPHCIPRP	-0.457
RRIRHRPPRLPRPRPRPNLQPRP	-0.0526
RRIRERPPRLPRPRPRPCEDPRP	0.0101
RRIRKRPPRLPRPRPRPNFKPRP	0.166
RRIRQRPPRLPRPRPRPLTVPRP	0.0325
RRIRLRPPRLPRPRPRPMVQPRP	-0.147
RRIRARPPRLPRPRPRPYMTPRP	-0.256
RRIRFRPPRLPRPRPRPLMYPRP	-0.323
RRIRHRPPRLPRPRPRPPCLPRP	-0.0439
RRIRMRPPRLPRPRPRPCYIPRP	-0.133
RRIRARPPRLPRPRPRPKRSPRP	0.427
RRIRFRPPRLPRPRPRPDSDPRP	-0.0137
RRIRVRPPRLPRPRPRPWCAPRP	-0.0313
RRIRTRPPRLPRPRPRPLGHPRP	-0.459
RRIRLRPPRLPRPRPRPPVQPRP	0.553
RRIRPRPPRLPRPRPRPQPSPRP	0.641
RRIRGRPPRLPRPRPRPSAPPRP	0.711
RRIRIRPPRLPRPRPRPMTIPRP	-1.16
RRIRCRPPRLPRPRPRPWCGPRP	-0.288
RRIRQRPPRLPRPRPRPQPAPRP	0.218

Sequence	shrunken log2 fold change
RRIRWRPPRLPRPRPRPRRMPRP	0.215
RRIRQRPPRLPRPRPRPELSPRP	-0.00478
RRIRYRPPRLPRPRPRPNAHPRP	-0.395
RRIRRRPPRLPRPRPRPPNHPRP	0.234
RRIRWRPPRLPRPRPRPANRPRP	0.0566
RRIRNRPPRLPRPRPRPPYQPRP	-0.22
RRIRARPPRLPRPRPRPYKTPRP	-0.0275
RRIRNRPPRLPRPRPRPPLLPRP	0.125
RRIRKRPPRLPRPRPRPRPHPRP	0.762
RRIRARPPRLPRPRPRPNESPRP	0.102
RRIRRRPPRLPRPRPRPNRGPRP	-0.0468
RRIRTRPPRLPRPRPRPRNWPRP	0.325
RRIRGRPPRLPRPRPRPRSAPRP	1.31
RRIRPRPPRLPRPRPRPAWLPRP	0.513
RRIRFRPPRLPRPRPRPWDCPRP	0.00208
RRIRHRPPRLPRPRPRPHSTPRP	-0.349
RRIRFRPPRLPRPRPRPFPYPRP	-0.445
RRIRRRPPRLPRPRPRPDGLPRP	0.771
RRIRERPPRLPRPRPRPDQWPRP	0.189
RRIRPRPPRLPRPRPRPYAPPRP	-0.207
RRIRGRPPRLPRPRPRPNGIPRP	0.287
RRIRHRPPRLPRPRPRPMDKPRP	-0.123
RRIRTRPPRLPRPRPRPKCVPRP	-0.138
RRIRWRPPRLPRPRPRPIHKPRP	-0.0298
RRIRQRPPRLPRPRPRPLVIPRP	-0.682

Sequence	shrunken log2 fold change
RRIRGRPPRLPRPRPRPVYPPRP	-0.129
RRIRCRPPRLPRPRPRPNCVPRP	-0.00701
RRIRKRPPRLPRPRPRPHWWPRP	0.119
RRIRPRPPRLPRPRPRPWGLPRP	0.253
RRIRPRPPRLPRPRPRPVDKPRP	-0.153
RRIRIRPPRLPRPRPRPVRIPRP	0.154
RRIRNRPPRLPRPRPRPVGPPRP	0.448
RRIRHRPPRLPRPRPRPIIWPRP	-0.145
RRIRLRPPRLPRPRPRPLPLPRP	0.338
RRIRDRPPRLPRPRPRPTPNPRP	0.272
RRIRYRPPRLPRPRPRPRGDPRP	0.316
RRIRGRPPRLPRPRPRPFQFPRP	0.00963
RRIRQRPPRLPRPRPRPMRPPRP	0.968
RRIRIRPPRLPRPRPRPINYPRP	-0.379
RRIRDRPPRLPRPRPRPAPFPRP	0.196
RRIRMRPPRLPRPRPRPYNGPRP	-0.289
RRIRQRPPRLPRPRPRPYRSPRP	-0.0119
RRIRTRPPRLPRPRPRPPMFPRP	-0.097
RRIRHRPPRLPRPRPRPWPAPRP	0.292
RRIRGRPPRLPRPRPRPSGPPRP	-0.0342
RRIRKRPPRLPRPRPRPYTGPRP	-0.318
RRIRNRPPRLPRPRPRPISMPRP	-0.0881
RRIRYRPPRLPRPRPRPLKAPRP	0.141
RRIRGRPPRLPRPRPRPLAMPRP	0.94
RRIRARPPRLPRPRPRPRMVPRP	0.686

From the supplement of paper PMC9112550, “Optimization of the antimicrobial peptide Bac7 by deep mutational scanning” (BMC Biology, 2022)
